US20240254222A1 (Bayer, published 2024)

T1: Human Semaphorin3A-Sema Domain, TPP-19068 (human, UniProt Q14563 21-569)
T1 construct: produced inhouse in HEK293-6E; also called human monovalent Sema3A domain
T1 sequence: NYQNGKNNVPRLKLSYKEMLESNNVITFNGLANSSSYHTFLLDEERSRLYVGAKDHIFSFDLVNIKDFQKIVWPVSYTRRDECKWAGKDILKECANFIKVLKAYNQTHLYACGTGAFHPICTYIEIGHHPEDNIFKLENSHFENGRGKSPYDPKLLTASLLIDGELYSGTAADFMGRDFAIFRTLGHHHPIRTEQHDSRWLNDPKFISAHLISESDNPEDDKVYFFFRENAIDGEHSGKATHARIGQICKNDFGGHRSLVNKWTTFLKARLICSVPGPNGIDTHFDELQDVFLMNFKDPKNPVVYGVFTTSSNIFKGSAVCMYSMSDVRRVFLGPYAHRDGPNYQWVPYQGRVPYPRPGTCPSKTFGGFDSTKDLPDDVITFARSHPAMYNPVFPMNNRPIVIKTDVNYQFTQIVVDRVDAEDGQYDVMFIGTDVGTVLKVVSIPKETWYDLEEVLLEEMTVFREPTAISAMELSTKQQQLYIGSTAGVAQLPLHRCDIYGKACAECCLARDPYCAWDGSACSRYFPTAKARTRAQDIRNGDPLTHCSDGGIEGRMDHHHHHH

T2: Mouse Semaphorin3A-Sema Domain, TPP-19069 (mouse, UniProt O08665 21-569)
T2 construct: produced inhouse
T2 sequence: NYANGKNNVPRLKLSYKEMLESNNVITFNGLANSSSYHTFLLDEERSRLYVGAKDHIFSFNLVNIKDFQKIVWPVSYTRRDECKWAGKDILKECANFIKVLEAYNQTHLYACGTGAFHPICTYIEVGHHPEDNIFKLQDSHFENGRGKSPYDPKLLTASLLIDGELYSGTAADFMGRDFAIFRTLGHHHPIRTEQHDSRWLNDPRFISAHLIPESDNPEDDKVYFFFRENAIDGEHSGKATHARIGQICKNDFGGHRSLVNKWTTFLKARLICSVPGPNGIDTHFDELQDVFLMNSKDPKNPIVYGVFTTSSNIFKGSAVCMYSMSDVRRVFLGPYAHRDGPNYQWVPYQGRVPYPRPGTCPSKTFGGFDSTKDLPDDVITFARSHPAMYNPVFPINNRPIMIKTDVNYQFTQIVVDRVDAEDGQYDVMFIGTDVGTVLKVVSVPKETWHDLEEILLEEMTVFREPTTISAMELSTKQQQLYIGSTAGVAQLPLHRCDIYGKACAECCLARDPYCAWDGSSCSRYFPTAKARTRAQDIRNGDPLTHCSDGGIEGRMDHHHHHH

T3: Cyno Semaphorin3A-Sema Domain, TPP-19122 (cynomolgus (Macaca fascicularis), UniProt Q63548 21-569 (rat entry), limits assumed)
T3 construct: produced inhouse
T3 chain: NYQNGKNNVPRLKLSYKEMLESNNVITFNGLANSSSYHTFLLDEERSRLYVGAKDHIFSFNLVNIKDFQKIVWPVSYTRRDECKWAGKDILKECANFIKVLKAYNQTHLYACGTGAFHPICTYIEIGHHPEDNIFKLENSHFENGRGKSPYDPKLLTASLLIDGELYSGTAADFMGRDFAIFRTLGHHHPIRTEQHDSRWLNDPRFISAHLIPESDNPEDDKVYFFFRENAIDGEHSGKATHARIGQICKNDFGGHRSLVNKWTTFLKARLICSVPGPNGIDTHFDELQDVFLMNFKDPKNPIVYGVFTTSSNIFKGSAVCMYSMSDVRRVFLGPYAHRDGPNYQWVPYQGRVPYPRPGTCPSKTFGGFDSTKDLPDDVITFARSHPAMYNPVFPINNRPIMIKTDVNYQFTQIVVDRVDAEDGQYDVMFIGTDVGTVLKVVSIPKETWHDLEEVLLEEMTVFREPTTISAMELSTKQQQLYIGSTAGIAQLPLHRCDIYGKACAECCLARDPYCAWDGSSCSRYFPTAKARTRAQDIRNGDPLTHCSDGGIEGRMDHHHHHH


How the values were obtained:
[1] = molecular target: T1, Human Semaphorin3A-Sema Domain, …; test: SPR, captured antibody, Sema3A domain analyte
Procedure: (§1) To assess the binding kinetics and affinity of anti-Sema3A antibodies as well as their species cross-reactivity profile, binding assays were conducted using surface plasmon resonance (SPR). Binding assays were performed on a Biacore T200 instrument or on a Biacore 8K+ instrument (Cytiva) at 25° C. using assay buffer HBS P+, 300 mM NaCl, 0.75 mM CaCl₂, 2.5 mM MgCl₂, 1 mg/ml BSA, 0.05% NaN₃. Antibodies were captured either via anti-human Fc IgGs (“Human antibody capture kit”, Order No. BR100839, Cytiva) or in case of Fc-tagged analytes by anti-human Fab IgGs (“Human Fab capture kit”, Order No. 28958325, Cytiva) covalently amine coupled to a Series S CM5 sensor chip (Cytiva). The amine coupling was carried out according to the manufacturer's instructions using 1-ethyl-3-(3-dimethylaminopropyl) carbodiimide hydrochloride (EDC), N-hydroxysuccinimide (NHS) and ethanolamine HCl, pH 8.5 (“Amine Coupling Kit” BR-1000-50, Cytiva.). For phage display hits Fc-tagged human and mouse Sema3A was used as analytes in a concentration range from 1.56-200 nM. Human, mouse, cynomolgus, rat, dog and pig monovalent Sema3A domain were used as analytes in a concentration series from […] in multi cycle kinetics mode or in 100 nM for binding analysis only. The sensor surface was regenerated with glycine pH 2.0 after each antigen injection. Obtained sensorgrams were double referenced (subtraction of reference flow cell signal and buffer injection) and were fitted to a 1:1 Langmuir binding model to derive kinetic data using the Biacore T200 Evaluation software.

[2] = molecular target: T2, Mouse Semaphorin3A-Sema Domain, …; test: SPR, captured antibody, Sema3A domain analyte
Procedure: as §1

[3] = molecular target: T3, Cyno Semaphorin3A-Sema Domain, TPP-19122; test: SPR, captured antibody, Sema3A domain analyte
Procedure: as §1

[4] = molecular target: T4, Human Semaphorin3A-Fc (R&D Systems), TPP-13211 (human); test: competition ELISA on coated TPP-13211, competitor biotinylated TPP-15374
T4 construct: R&D Systems 1250-S3; also called recombinant human Sema3A-Fc chimera
T4 sequence (chain, as listed by the source limits assumed): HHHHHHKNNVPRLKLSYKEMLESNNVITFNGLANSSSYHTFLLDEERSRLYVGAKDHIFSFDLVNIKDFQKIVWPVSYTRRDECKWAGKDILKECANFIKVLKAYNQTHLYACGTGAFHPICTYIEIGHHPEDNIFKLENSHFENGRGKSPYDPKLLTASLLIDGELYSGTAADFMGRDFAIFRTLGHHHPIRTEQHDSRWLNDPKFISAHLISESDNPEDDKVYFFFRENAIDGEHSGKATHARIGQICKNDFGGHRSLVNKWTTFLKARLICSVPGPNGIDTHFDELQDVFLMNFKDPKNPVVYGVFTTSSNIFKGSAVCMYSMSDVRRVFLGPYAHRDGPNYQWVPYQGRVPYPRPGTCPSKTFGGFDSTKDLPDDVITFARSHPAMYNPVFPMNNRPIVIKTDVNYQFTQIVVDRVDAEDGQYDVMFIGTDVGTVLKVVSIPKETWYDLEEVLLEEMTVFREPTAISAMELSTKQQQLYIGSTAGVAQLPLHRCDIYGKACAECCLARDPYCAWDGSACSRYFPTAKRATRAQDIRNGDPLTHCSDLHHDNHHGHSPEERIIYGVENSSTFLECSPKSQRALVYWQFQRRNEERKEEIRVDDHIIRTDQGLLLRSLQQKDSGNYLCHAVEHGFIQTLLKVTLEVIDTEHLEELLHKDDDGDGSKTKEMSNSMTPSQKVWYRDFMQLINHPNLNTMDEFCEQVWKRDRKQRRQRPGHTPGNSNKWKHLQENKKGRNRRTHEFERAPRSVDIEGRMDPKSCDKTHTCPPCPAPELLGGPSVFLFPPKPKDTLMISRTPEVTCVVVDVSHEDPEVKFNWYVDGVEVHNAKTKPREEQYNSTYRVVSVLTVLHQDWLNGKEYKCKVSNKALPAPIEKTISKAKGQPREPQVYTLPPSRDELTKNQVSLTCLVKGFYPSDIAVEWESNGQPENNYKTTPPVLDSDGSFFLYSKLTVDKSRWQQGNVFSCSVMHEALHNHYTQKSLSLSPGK
Procedure: For screening in a competition ELISA setup, human Sema3a (TPP-13211) was coated onto 384-well plates (Greiner bio-one, 781077) with a concentration of 0.5 μg/ml in coating buffer (Carbonate-Basis pH 9.6, Candor 121125) over night at 10° C. After washing the plates 3 times with 50 μl PBS 0.05% Tween the plates were blocked with 50 μl Smart Block® (Candor 113500) for 1 h at 20° C. and washed again 3 times as described.
Subsequently, 20 μl of pre-mixed antibody solution was added to the plates and incubate for 18 h at 10° C. […] The total concentration of the added antibody solution was 0.25 μg/ml. During the incubation time the antibodies bound to the plates in a competitive manner as they compete for the same epitope on the human Sema3A protein.
After subsequent washing with 50 μl PBS 0.05% Tween for 3 times, 20 μl of a Streptavidin-HRP solution (R&D Systems, DY998, 1:200 in PBS 0.05% Tween 10% Smart Block) were added and incubated for 1 h and 20° C. followed by subsequent washing 3 times with 50 μl PBS 0.05% Tween and addition of 20 μl Amplex Red solution (Invitrogen A12222, 1:1000 in NaP-buffer 50 mM pH7.6 with 1:10000 of 30% H2O2). After a final incubation for 20 min at 20° C. the signal was determined using an emission wavelength of 595 nm and excitation of 530 nm.

Row | Binder | Kd [1] [nM] | Kd [2] [nM] | Kd [3] [nM] | VAL norm to TPP-9809 (1 to 1 ratio) [4] | VAL norm to TPP-9809 (1 to 5 ratio) [4]
1 | TPP-18533 (antibody, human IgG1, lambda, V domains shown, IgG1) VH: EVQLLESGGGLVQPGGSLRLSCAASGFTFSSYEMNWVRQAPGKGLEWVSGISWNSGSIGYADSVKGRFTISRDNSKNTLYLQMNSLRAEDTAVYYCARSGYSSSWFDPDFDYWGQGTLVTVSS VL: QSVLTQPPSVSGAPGQRVTISCTGSSSNIGAGYDVHWYQQLPGTAPKLLIYGNSNRPSGVPDRFSGSKSGTSASLAITGLQAEDEADYYCSSYAGSNPYVVFGGGTKLTVLG | 8.7 | 8.1 | 6.4 | – | –
2 | TPP-25257 (antibody, human IgG1, lambda, V domains shown) VH: EVQLLESGGGLVQPGGSLRLSCAASGFDFDSYEMNWVRQAPGKGLEWVSGISWNSGWIDYADSVKGRFTISRDNSKNTLYLQMNSLRAEDTAVYYCARSGYSSSWFDPDFDYWGQGTLVTVSS VL: QSVLTQPPSVSGAPGQRVTISCTGSSSNIGAGYDVHWYQQLPGTAPKLLIYGNSNRPSGVPDRFSGSKSGTSASLAITGLQAEDEADYYCQSYAGPNPYVVFGGGTKLTVLG | 0.053 | – | – | 0.36 | 0.18
3 | TPP-25224 (antibody, human IgG1, lambda, V domains shown) VH: EVQLLESGGGLVQPGGSLRLSCAASGFTFDSYEMNWVRQAPGKGLEWVSGISWNSGWIDYADSVKGRFTISRDNSKNTLYLQMNSLRAEDTAVYYCARSGYSSSWFDPDFDYWGQGTLVTVSS VL: QSVLTQPPSVSGAPGQRVTISCTGSSSNIGAGYDVHWYQQLPGTAPKLLIYGNSNRPSGVPDRFSGSKSGTSASLAITGLQAEDEADYYCQSYAGINPYVVFGGGTKLTVLG | 0.049 | – | – | 0.43 | 0.17
4 | TPP-25256 (antibody, human IgG1, lambda, V domains shown) VH: EVQLLESGGGLVQPGGSLRLSCAASGFTFDSYEMNWVRQAPGKGLEWVSGISWNSGWIDYADSVKGRFTISRDNSKNTLYLQMNSLRAEDTAVYYCARSGYSSSWFDPDFDYWGQGTLVTVSS VL: QSVLTQPPSVSGAPGQRVTISCTGSSSNIGAGYDVHWYQQLPGTAPKLLIYGNSNRPSGVPDRFSGSKSGTSASLAITGLQAEDEADYYCQSYAGPNPYVVFGGGTKLTVLG | 0.049 | – | – | 0.41 | 0.15
5 | TPP-25248 (antibody, human IgG1, lambda, V domains shown) VH: EVQLLESGGGLVQPGGSLRLSCAASGFDFSSYEMNWVRQAPGKGLEWVSGISWNSGWIGYADSVKGRFTISRDNSKNTLYLQMNSLRAEDTAVYYCARSGYSSSWFDPDFDYWGQGTLVTVSS VL: QSVLTQPPSVSGAPGQRVTISCTGSSSNIGAGYDVHWYQQLPGTAPKLLIYGNSNRPSGVPDRFSGSKSGTSASLAITGLQAEDEADYYCQSYAGPNPYVVFGGGTKLTVLG | 0.05 | – | – | 0.36 | 0.2
6 | TPP-25064 (antibody, human IgG1, lambda, V domains shown) VH: EVQLLESGGGLVQPGGSLRLSCAASGFTFDSYEMNWVRQAPGKGLEWVSGISWNSGWIDYADSVKGRFTISRDNSKNTLYLQMNSLRAEDTAVYYCARSGYSSSWFDPDFDYWGQGTLVTVSS VL: QSVLTQPPSVSGAPGQRVTISCTGSSSDIGAGYDVHWYQQLPGTAPKLLIYGNSNRPSGVPDRFSGSKSGTSASLAITGLQAEDEADYYCSSYAGPNPYVVFGGGTKLTVLG | 0.049 | – | – | 0.48 | 0.19
7 | TPP-25448 (antibody, human IgG1, lambda, V domains shown) VH: EVQLLESGGGLVQPGGSLRLSCAASGFTFDSYEMNWVRQAPGKGLEWVSGISWNSGWIDYADSVKGRFTISRDNSKNTLYLQMNSLRAEDTAVYYCARSGYSSSWFDPDFDYWGQGTLVTVSS VL: QSVLTQPPSVSGAPGQRVTISCTGSSSDIGAGYDVHWYQQLPGTAPKLLIYGNSNRPSGVPDRFSGSKSGTSASLAITGLQAEDEADYYCQSYAGINPYVVFGGGTKLTVLG | 0.053 | – | – | 0.47 | 0.19
8 | TPP-25255 (antibody, human IgG1, lambda, V domains shown) VH: EVQLLESGGGLVQPGGSLRLSCAASGFDFSSYEMNWVRQAPGKGLEWVSGISWNSGWIDYADSVKGRFTISRDNSKNTLYLQMNSLRAEDTAVYYCARSGYSSSWFDPDFDYWGQGTLVTVSS VL: QSVLTQPPSVSGAPGQRVTISCTGSSSNIGAGYDVHWYQQLPGTAPKLLIYGNSNRPSGVPDRFSGSKSGTSASLAITGLQAEDEADYYCQSYAGPNPYVVFGGGTKLTVLG | 0.051 | – | – | 0.37 | 0.17
